Assay results from US20200270347A1 (Hoffmann-La Roche, published 2020).
Residue numbers refer to the chain shown, from its start. Numbers in names are those of the source.

How the values were obtained:
EGFRvIII-ECD avi his [1] = target: T1, EGFRvIII-ECD avi his (human); experiment: SPR, ECD antigen captured with anti-His, single injection of antibody at 500 nM
T1 construct: Extracellular domain of human EGFRvIII fused to an Avi-tag and a His-tag at the C-terminus; the entry is the whole construct; also called recombinant EGFRvIII; EGFRvIII antigen

[2] = target: EGFRwt ECD antigen (His-tagged, captured with anti-His) (human, UniProt P00533 25-645); experiment: as above
EGFRvIII-ECD avi his [3] = target: T1, EGFRvIII-ECD avi his; experiment: SPR, PGLALA IgG captured with anti-PGLALA antibody, EGFRvIII-ECD avi his as analyte, 1:1 Langmuir, 25° C.
[4] = target: T2, wild-type EGFR on MKN-45 cells (human, UniProt P00533 25-1210); experiment: flow cytometry on MKN-45 cells (wild-type EGFR)
T2 construct: MKN-45 is the wild-type EGFR line used to exclude crossreactivity; also called EGFRwt

[5] = target: T3, EGFRvIII expressed on the cell surface (CHO-EGFRvIII, DK-MG, U87MG-EGFRvIII cells) (human, UniProt P00533 298-1210); experiment: flow cytometry on U87MG-EGFRvIII cells, IgG PGLALA
T3 construct: The cell line of each result is named under assay; Species is stated for the U87 transfectant (human EGFRvIII protein) and the entry; also called EGFRvIII positive cells

[6] = target: T3, EGFRvIII expressed on the cell surface …; experiment: flow cytometry on CHO-EGFRvIII cells, IgG
[7] = target: T4, heterodimer of cynomolgus CD3 delta and CD3 epsilon ectodomains fused to a human Fc domain with … (cynomolgus); experiment: SPR, TCB captured with anti-PGLALA antibody, CD3 antigen as analyte, 1:1 Langmuir; CD3opt; cynomolgus CD3
T4 construct: Each entry is the whole fusion chain; also called Cynomolgus CD3 epsilon stalk-Fc(knob)-Avi / Cynomolgus CD3 delta stalk-Fc(hole)-Avi

[8] = target: T3, EGFRvIII expressed on the cell surface …; experiment: flow cytometry on U87MG-EGFRvIII cells, fluorescently labelled anti-human Fc secondary antibody
[9] = target: T5, heterodimer of human CD3 delta and CD3 epsilon ectodomains fused to a human Fc domain with knob-into-hole … (human); experiment: SPR, relative active concentration after stress
T5 construct: Each entry is the whole fusion chain (ectodomain, stalk, Fc, Avi-tag); also called recombinant CD3; recombinant human CD3

[10] = target: T5, heterodimer of human CD3 delta and CD3 …; experiment: SPR, TCB captured with anti-PGLALA antibody, CD3 antigen as analyte, 1:1 Langmuir; CD3opt; human CD3
EGFRvIII-ECD avi his [11] = target: T1, EGFRvIII-ECD avi his; experiment: SPR, TCB captured with anti-Fc antibody, EGFRvIII-ECD avi his as analyte, 1:1 fit; CD3opt
EGFRvIII-ECD avi his [12] = target: T1, EGFRvIII-ECD avi his; experiment: SPR, TCB captured with anti-Fc antibody, EGFRvIII-ECD avi his as analyte, 1:1 fit; CD3orig
[13] = target: T5, heterodimer of human CD3 delta and CD3 …; experiment: SPR, TCB captured with anti-PGLALA antibody, CD3 antigen as analyte, 1:1 Langmuir; CD3orig; human CD3
[14] = target: T3, EGFRvIII expressed on the cell surface …; experiment: flow cytometry on CHO-EGFRvIII cells, TCB

B1: EGFRvIII antibody P056.021 IgG1 PGLALA (antibody, V domains shown)
VH: EVQLVQSGAEVKKPGESLKISCKGSGYSFDSYWIAWVRQMPGKGLEWMGVIHPYDSDTRYSPSFQGQVTISADKSISTAYLQWSSLKASDTAMYYCARVSRSSYAFDYWGQGTLVTVSS
VL: not shown
notes: Human IgG1 with P329G L234A L235A; also called P056.021 (parental)
EGFRvIII-ECD avi his [1]
  response units: > 50 RU
[2]
  response units: < 5 RU
EGFRvIII-ECD avi his [3]
  Kd: 35 nM
[4]
  binding result: no binding (tested: about 140 nM)
[5]
  EC50 (read off the curve): ~4 nM
[6]
  EC50: 16.5 nM

B2: EGFRvIII TCB CD3opt (EGFRvIII binder P063.056) (bispecific antibody, human IgG1, kappa, L234A L235A)
heavy 1: not shown
heavy 2: EVQLVQSGAEVKKPGESLKISCKGSGYSFDSYWIAWVRQMPGKGLEWMGVIHPYDSDTRYSPSFQGQVTISADKSISTAYLQWSSLKASDTAMYYCARVSRSSYAFDYWGQGTLVTVSSASTKGPSVFPLAPSSKSTSGGTAALGCLVEDYFPEPVTVSWNSGALTSGVHTFPAVLQSSGLYSLSSVVTVPSSSLGTQTYICNVNHKPSNTKVDEKVEPKSCDKTHTCPPCPAPEAAGGPSVFLFPPKPKDTLMISRTPEVTCVVVDVSHEDPEVKFNWYVDGVEVHNAKTKPREEQYNSTYRVVSVLTVLHQDWLNGKEYKCKVSNKALGAPIEKTISKAKGQPREPQVCTLPPSRDELTKNQVSLSCAVKGFYPSDIAVEWESNGQPENNYKTTPPVLDSDGSFFLVSKLTVDKSRWQQGNVFSCSVMHEALHNHYTQKSLSLSP
light 1: not shown
light 2: EVQLLESGGGLVQPGGSLRLSCAASGFQFSSYAMNWVRQAPGKGLEWVSRIRSKYNNYATYYADSVKGRFTISRDDSKNTLYLQMNSLRAEDTAVYYCVRHTTFPSSYVSYYGYWGQGTLVTVSSASVAAPSVFIFPPSDEQLKSGTASVVCLLNNFYPREAKVQWKVDNALQSGNSQESVTEQDSKDSTYSLSSTLTLSKADYEKHKVYACEVTHQGLSSPVTKSFNRGEC
notes: 2+1 IgG CrossFab, inverted, with charge modifications; also called EGFRvIII TCB P063.056 with CD3opt; 2+1 format
[7]
  Kd: 20 nM
[8]
  binding result: binds
[9]
  binding activity to CD3 after 2 weeks at pH 7.4, 37° C., relative to 2 weeks at pH 6, -80° C.: > 90%
[10]
  Kd: 30 nM
EGFRvIII-ECD avi his [11]
  Kd: 6 nM

B3: EGFRvIII TCB CD3orig (EGFRvIII binder P063.056) (bispecific antibody, human IgG1, kappa, L234A L235A)
heavy 1: not shown
heavy 2: B2 heavy 2
light 1: not shown
light 2: B2 light 2 with Q28T, S31T, T102G, T103N, P105G, S106N, Y111W, Y112F, G113A
notes: 2+1 IgG CrossFab, inverted, with charge modifications; also called EGFRvIII TCB P063.056 with CD3orig
EGFRvIII-ECD avi his [12]
  Kd: 6 nM
[13]
  Kd: 40 nM
[8]
  EC50 (read off the curve): ~9 nM

B4: EGFRvIII TCB P056.021 (CD3orig) (bispecific antibody, V domains shown)
VH 1: B1 VH
VL 1: not shown
VH 2: not shown
VL 2: QAVVTQEPSLTVSPGGTVTLTCGSSTGAVTTSNYANWVQEKPGQAFRGLIGGTNKRAPGTPARFSGSLLGGKAALTLSGAQPEDEAEYYCALWYSNLWVFGGGTKLTVL
notes: also called parental EGFRvIII TCB P056.021; P056.021 EGFRvIII TCB with CD3orig
[14]
  EC50: 13 nM
[4]
  binding result: no binding (tested: about 140 nM)
